Values belong to the substance of their own block, whether it stands above or below them.
Tests used:
Δ315N ClpX^ΔN (E. coli) = Δ315N ClpX^ΔN (E. coli) (UniProt P0A6H1)
[1] = target: T66C P388C E109C N331C ClpX^ΔN (E. coli) (UniProt P0A6H1); assay: cross-linking
+315N ClpX^ΔN (E. coli) = +315N ClpX^ΔN (E. coli) (UniProt P0A6H1)
[2] = target: T66C P388C ClpX^ΔN (E. coli) (UniProt P0A6H1); assay: cross-linking

- stoichiometry N (Δ315N ClpX^ΔN (E. coli)): 6
Substance: Δ315N ClpX^ΔN (from UniProt P0A6H1 61-423) (enzyme)

- percent of the protein as circular hexamer after oxidation [1]: > 90%
- stoichiometry N [1]: 6
Substance: T66C P388C E109C N331C ClpX^ΔN (from UniProt P0A6H1 61-423) (enzyme)

- stoichiometry N (+315N ClpX^ΔN (E. coli)): 6
Substance: +315N ClpX^ΔN (from UniProt P0A6H1 61-423) (enzyme)

- percent of the protein as disulfide-bonded circular hexamer after oxidation [2]: 75%
- stoichiometry N [2]: 6
Substance: T66C P388C ClpX^ΔN (from UniProt P0A6H1 61-423) (enzyme)
